Data taken from patent publication CN110903386A (INST MILITARY MEDICINE ACADEMY MILITARY SCIENCES PLA, dated 2020).

Biological target: 基孔肯雅病毒E2蛋白 (基孔肯雅病毒标准株S27, UniProt Q8JUX5 326-748)
Test: cell-based or functional assay

Sequence of 基孔肯雅病毒E2蛋白 (Q8JUX5 326-748 limits assumed): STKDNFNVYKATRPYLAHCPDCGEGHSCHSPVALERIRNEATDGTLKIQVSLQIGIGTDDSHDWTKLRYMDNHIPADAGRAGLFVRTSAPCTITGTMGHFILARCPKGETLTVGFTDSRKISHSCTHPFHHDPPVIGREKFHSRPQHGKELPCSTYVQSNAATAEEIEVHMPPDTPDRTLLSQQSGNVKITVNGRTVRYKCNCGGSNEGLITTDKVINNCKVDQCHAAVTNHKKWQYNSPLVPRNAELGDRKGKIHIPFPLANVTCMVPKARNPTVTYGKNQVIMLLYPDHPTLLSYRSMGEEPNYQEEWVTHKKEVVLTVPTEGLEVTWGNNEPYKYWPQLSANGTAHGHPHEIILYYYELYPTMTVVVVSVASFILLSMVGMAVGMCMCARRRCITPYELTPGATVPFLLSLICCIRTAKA

B1: 抗基孔肯雅病毒全人源单克隆抗体8D1 (antibody, human IgG1, kappa, V domains shown)
VH: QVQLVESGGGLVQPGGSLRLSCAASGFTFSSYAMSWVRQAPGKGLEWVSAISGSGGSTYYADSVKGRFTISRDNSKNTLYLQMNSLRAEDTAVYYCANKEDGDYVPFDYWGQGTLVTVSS
VL: DIVMTQSPATLSASVGDRVTITCRASQSISSYLNWYQQKPGKAPKLLIYAASSLQSGVPSRFSGSGSGTDFTLTISSLQPEDFATYYCQQSYFFGPGTKVDIKR
IC50, Vero细胞中和实验 (结晶紫染色, 细胞活率): 0.12 µg/mL
